In the supplement of paper PMC10567573:
± gives the standard deviation.

Assay: protein stability index of a GFP-peptide fusion (GPS, HEK-293T) (PSI 1-6); higher = more stable
[1] = treatment: DMSO, c terminus: a fixed tail appended
[2] = treatment: MLN4924 1 uM, 8 h, c terminus: a fixed tail appended
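Note: 24-mer peptide tiles fused after GFP, lentivirally expressed, FACS-sorted into six equal bins by GFP/DsRed ratio, decoded by Illumina sequencing, PSI is the read-weighted mean bin number.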

Sequence	protein stability index [1]	protein stability index [2]	protein stability index (treatment: DMSO, c terminus: native)	protein stability index (treatment: MLN4924 1 uM, 8 h, c terminus: native)
DQLTQIMRTGQNTWESKNILAVSF [PCMTD1]	2.21 ± 0.22	1.92 ± 0.36		
DQWNILQTPILEGRSGPGCAVLDD [KLHL14]	4.37 ± 0.34	4.16 ± 0.26		
DQWTPIAAMLRGQSDVGVAVFENK [KLHL13]	3.53 ± 0.2	3.42 ± 0.2		
DRPDLSLTVLPKLQARERGEEQVE [C2CD2L]	5.37 ± 0.13	5.27 ± 0.16		
DRVILSSSTSCLMPSKLFAGLVHV [CRYL1]	2.27 ± 0.64	2.58 ± 0.49		
DSAELEPGSQTAVKNSNRYDVEMT [FBXO34]	5.26 ± 0.2	5.29 ± 0.2		
DSFVVQYEDTNGQPQALLVDGDQS [TNXB]	5 ± 0.27	4.83 ± 0.39		
DSLEKTDDDKYKITLKYPHYFPVM [NLN]	2.73 ± 0.27	2.7 ± 0.28		
DTGVFAVVNSHSLSLLGKLTISAA [SLC22A15]	2.5 ± 0.42	2.33 ± 0.53		
DTLFERATNSSWVVVFKALVTTHH [SNAP91]	2.62 ± 0.55	2.71 ± 0.48		
DTNSIAKAIKARGEVIHCKLRAMK [STX11]	2.82 ± 0.29	2.89 ± 0.23		
DVADDFENYHKLRRSSSKCIHDHH [NETO1]	3.85 ± 0.15	4.15 ± 0.11		
DVLRGNDETIGFEDILNDPSQSEV [POMP]	5.13 ± 0.092	5.21 ± 0.17		
DWFSGHLNFQIEHHLFPTMPRHNY [FADS1]	2.15 ± 0.48	2.07 ± 0.25		
DWGTPRELTFSYIAFDGVVGSGGR [RTN2]	1.91 ± 0.22	2.43 ± 0.37		
DYEAGTLSFYNVTDRSHIYTFTDT [TRIM39]	2.58 ± 0.38	2.69 ± 0.28		
DYEKMFGTKCHGCDFKIDAGDRFL [PDLIM7]	2.92 ± 0.31	2.96 ± 0.66		
DYGVDPSQFSGTLMRTCERLVKEG [PPTC7]	3.72 ± 0.42	3.79 ± 0.35		

Sequence	protein stability index [1]	protein stability index [2]	protein stability index (treatment: DMSO, c terminus: native)	protein stability index (treatment: MLN4924 1 uM, 8 h, c terminus: native)
DYSRPLHISTFINELDSGFRLLNL [TSN]	2.11 ± 0.27	2.21 ± 0.088		
EAAAAEEGLRELQRSRRLCHEDVE [DAPK3]	5.29 ± 0.23	5.4 ± 0.45		
EAAGESLEEEIRRKQILLRGKLKK [ZC2HC1C]	4.87 ± 0.33	4.59 ± 0.35		
EAAKGGHTSVVCYLLDYPNNLLSA [ANKRD17]	2.02 ± 0.57	2.06 ± 0.47		
EAAMAIASLNGYRLGERVLQVSFK [ELAVL3]	2.24 ± 0.11	2.27 ± 0.17		
EAELELLRQFDLAWQYGPCTGITR [POLD4]	2.85 ± 0.3	2.67 ± 0.3		
EDDIRPDIKDDIYDPTYKDKEGPS [SCD]	5.46 ± 0.39	5.37 ± 0.34		
EDKIFPVPEEPPVKKLMRTSTPPP [ZBED1]	4.8 ± 0.27	4.61 ± 0.34		
EDLQSIIYKLEEHEEFFPAFQAFT [CEP70]	2.38 ± 0.18	2.17 ± 0.31		
EEAQPMAAPEGKRSLANGPNAGEQ [EID1]	5.16 ± 0.34	5.48 ± 0.31		
EEDIQGPTKADTEKWAEGGGHSRE [CHGB]	5.52 ± 0.17	5.38 ± 0.28		
EEELNFEKGETMEVIEKPENDPEW [NCK2]	5.53 ± 0.32	5.55 ± 0.5		
EEFIEEEDQEEEESTEGKEEGHQ [TRIM63]			5.56 ± 0.41	5.71 ± 0.27
EEGVVGGLSGGALSPLRAASDPLL [TFE3]	4.33 ± 0.31	4.63 ± 0.4		
EELEEDIRKKLKDSGDVSNVIEKV [RHOBTB3]	5.37 ± 0.31	5.5 ± 0.25		
EELSVLEVFEGREDSILGDPKKLL [MAGEA3]	4.38 ± 0.28	4.75 ± 0.23		
EETEVLAHEIERLQMEMKEDDVSF [TRIM35]	5.43 ± 0.2	5.48 ± 0.094		
EFETLYNEHKSCEEKSVKNTSIRV [CLK3]	4.59 ± 0.36	4.77 ± 0.23		
